Drawing on paper PMC7659345, “Viral rhodopsins 1 are an unique family of light-gated cation channels” (Nature Communications, 2020), this text covers pKa for 2 proteins.

One series has as its target Asp80 (position 80, …). As to the kind of experiment: UV-vis. The conditions noted are these: 10 mM citrate, 10 mM MES, 10 mM HEPES, 10 mM MOPS, 10 mM CHES and 10 mM CAPS. The pH was adjusted with HCl or NaOH in steps of 0.5-0.7 units.; Dark (ground) state with all-trans retinal bound; purified, solubilised protein.
A further series deals with Asp76 (position 76, …). As to the kind of experiment: UV-vis. The note with it: 10 mM citrate, 10 mM MES, 10 mM HEPES, 10 mM MOPS, 10 mM CHES and 10 mM CAPS. The pH was adjusted with HCl or NaOH in steps of 0.5-0.7 units.; Dark (ground) state with all-trans retinal bound; purified, solubilised protein.

B1: VirChR1 (viral channelrhodopsin 1, viral rhodopsin group 1) (uncultured virus (Tara Oceans metagenomic contig TARA-146-SRF-0.22-3-C376786_1)) (protein)
chain: MKDKELLLLTVKISLVVQIISGIVSSFGIFIKLAPKDYILRDILIIETVVQIVEAIFYVYIYLSLESLDNNVITSRRYFDWVITTPIMLISTILFMRYNIRILYDKSKNKQNRQNKPKSNLTTYNVIKNNKDTIIKIVIGNFIMLCFGYLGEVDILSKTISIPIGFIFFFYVFYLIWREFGSYTQQNQILFWVLFIVWGLYGVSACLPVLQKNICYNILDIISKNFYGLYIFYYIYQHRLVV
As for B1, the pKa (usually the negative logarithm of the acid dissociation constant) with Asp80 (position 80, …) is 3.5.

B2: OLPVR1 (viral rhodopsin group 1, viral channelrhodopsin) (Organic Lake phycodnavirus) (protein)
chain: MDNIIMTAYISIFVQIITAIISVYGLFIPLNFKDIILREILILELIVQIIEFIFYIWLIITLQSINEDITYVRYFDWVLTTPVMLLTTVYFFEYMNSDDGIRKKEINDRDYVYLFYICLSNFFMLLIGYLGETKQINKMLTLFGGSFFLFLTFYLLYVKYTKENWMNYIVFYFMFLVWFLYGFAFMFPFSIKNQMYNILDIVSKNIYSIFIFIVILNQSYKLL
The protein B2 registered a pKa with Asp76 (position 76, …) of 4.8.
